The record followed here is patent US20240287168A1 (SHANGHAI JEMINCARE PHARMACEUTICAL, published 2024).

The target in assay [1] is T1, Biotinylated Human VEGF165 (ACROBiosystems, Cat. No. VE5-H82Q0) (human, UniProt P15692-4 27-191, biotinylated (site not stated)).
T1 construct: Bought reagent; also called Human VEGF-Bio; human VEGF165-Bio
Description: flow cytometry, yeast-displayed clone, 1 nM Human VEGF165-Biotin. On the technique in general: In flow cytometry, cells or beads pass a laser one at a time.

Assay [2] deals with T1, Biotinylated Human VEGF165 …. Kind of assay: flow cytometry, yeast-displayed clone, 1 nM Human VEGF165-Biotin; ratio of binding MFI and displaying MFI.
Assay [3] has the same target. Kind of assay: BLI (Octet RED96e), antibody captured on AHC sensor, 100 nM VEGF165, 1:1 fit. How it is done: (§1) The antigen and antibody were both diluted with 1×PBST (1×PBS: Sango Biotech, B548117-0500; 0.02% Tween 20: sigma-alorich, P1379), the antigen was used at a concentration of 100 nM, and the antibody was used at a concentration of 50 nM.
(§2) (2) On-board detection of samples (Octet Data Acquisition 11.1.0.11): First, the samples were added to a 96-well plate (Greiner bio-one, 655209), and the system was 200 μL/well. Then the software parameters were set, the plate temperature was set to be 30° C., and the frequency of collecting the standard kinetic signal was 5.0 Hz. Next, the AHC sensor (Fortébio, Cat. No.: 18-0015) was pre-wetted with 1×PBST for 10 minutes, and then detected on the machine. Each cycle consists of the following steps: 1) immersion in the buffer for 60 seconds; 2) detection of whether there is a non-specific binding between antigen and sensor; 3) regeneration of 10 mM glycine solution with pH 1.7; 4) immersion in the buffer for 60 seconds; 5) immobilization of the antibody on the sensor for a time of 20 seconds; 6) immersion of the sensor in the buffer for 180 seconds; 7) binding of the antigen to the antibody for a time of 180 seconds; 8) dissociation of the antigen and the antibody for 10 minutes; 9) sensor regeneration.
Fortebio's Data Analysis 11.0 software was used to measure the binding rate (Ka) and dissociation rate (Kd) of the antigen-antibody in a 1:1 binding mode, and then the equilibrium dissociation constant (KD) of the antibody was calculated.
On the technique in general: In BLI a coated tip is dipped into the sample, and binding shifts an interference pattern.

For assay [4] the target is unchanged. Kind of assay: competitive ELISA: antibody titrated with biotinylated human VEGF165 on coated human VEGFR2, SA-HRP, OD450; blocked interaction VEGF165-VEGFR2. How it is done: (§3) A competitive ELISA method was used to determine the activity of the single domain antibody in blocking the binding of VEGF165 to human VEGFR2. […] The next day, the plate was washed 3 times with washing solution PBST (0.05% TWEEN-20: sigma-alorich, P1379), and then the blocking solution PBST+2% BSA (BSA: VWR, 0332-1 KG) was prepared using the washing solution, with 300 μL of blocking solution added to each well, blocked at 37° C. for 1 hour. […] The plate was washed three times with the washing solution, the secondary antibody SA-HRP (sigma, S2438) was diluted 1:5000 with the blocking solution, added to the ELISA plate according to 100 μL/well, and incubated at 37° C. for 1 hour. The plate was washed 3 times with the washing solution, 100 μL of TMB chromogenic solution (Biopanda, Cat. No.: TMB-S-003) were added to each well, and developed color at room temperature in the dark, and then 50 μL of stop solution (Solarbio, Cat. No.: C1058) were added to each well to stop the reaction, and the absorbance was measured at a wavelength of 450 nm.
A general note: ELISA stands for enzyme-linked immunosorbent assay.

The target is the same in assay [5]. Description: BLI (Octet RED96e), method of Example 4, antibody on AHC sensor, 1:1 fit. How it is done:
as §1, §2

For assay [6] the target is unchanged. Kind of assay: BLI (Octet RED96e), method of Example 4, antibody on AHC sensor. How it is done:
as §1, §2

Assay [7] shares this target. Kind of assay: competitive ELISA: antibody titrated with biotinylated human VEGF165 (formulated at 700 ng/ml) on coated human VEGFR2, SA-HRP, OD450; blocked interaction VEGF165-VEGFR2. The procedure:
as §3

In the next assay the target is irrelevant antigen. Description: flow cytometry, yeast-displayed VHH, 10 nM irrelevant antigen, streptavidin-PE (Protocol 3, non-specific binding level).
In assay [8] the target is T1, Biotinylated Human VEGF165 …. Description: BLI (Octet RED96e), antibody captured on AHC sensor, 100 nM VEGF165. How it is done:
as §1, §2

T1 sequence (P15692 other isoform, or with tags, fused parts or gaps limits assumed): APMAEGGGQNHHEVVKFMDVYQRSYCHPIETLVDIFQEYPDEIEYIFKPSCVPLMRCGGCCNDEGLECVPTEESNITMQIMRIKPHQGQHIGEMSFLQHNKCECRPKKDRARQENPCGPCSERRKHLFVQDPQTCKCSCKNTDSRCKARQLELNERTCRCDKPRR

B1: Ab1910VE9 parental sequence displayed on the surface of yeast (VHH)
VHH: EVQLVESGGGLVQPGGSLRLSCAASGSTSDIVSMAWYRQAPGKERELVSAVFAEDWRYVEDSVKGRFTISRDNSKNTVYLQMNSLRAEDTAVYYCNVRLRITDERRRERLDYWGQGTLVTVSS
notes: also called clone number Ab1910VE9
Take B1: the “Binding MFI” value in assay [1] was determined as 42.1 MFI. The Binding force in assay [2] was 11.7.

B2: Ab1910VE9 (Hz20A6.3 humanized VHH fused with IgG1 Fc N297A) (Fc fusion)
VHH: EVQLVESGGGLVQPGGSLRLSCAASGSTSDIVSMAWYRQAPGKERELVSAVFAEDWRYVEDSVKGRFTISRDNSKNTVYLQMNSLRAEDTAVYYCNVRLRITDERRRERLDYWGQGTLVTVSS
notes: Expressed in ExpiCHO cells; not shown: IgG1 Fc N297A (purchased from Taizhou Biointron Inc.)
In the case of B2, in [3], the affinity, expressed as Kd, was 9.91 nM; the koff (as a rule, the rate constant with which the complex falls apart) is 0.0181 s⁻¹; the kon (as a rule, the rate constant with which the complex forms) amounted to 1.82e+06 M⁻¹ s⁻¹. Further, the IC50 – broadly, the point on the concentration scale where inhibition reaches its midpoint – in assay [4] stood at 4.67 µg/mL.

B3: Ab1910VE18 (expressed single domain antibody with the Ab1910VE9 parent sequence, molecule before affinity maturation) (VHH)
VHH: EVQLVESGGGLVQPGGSLRLSCAASGSTSDIVSMAWYRQAPGKERELVSAVFAEDWRYVEDSVKGRFTISRDNSKNTVYLQMNSLRAEDTAVYYCNVRLRITDERRRERLDYWGQGTLVTVSS
notes: Its theoretical pI (7.5) differs from that of Ab1910VE9 (7), so it is kept apart from Ab1910VE9
B3: in [5], the Kd (commonly the concentration at which binding is half-saturated) was found to be 2.23 nM, the koff amounted to 0.00403 s⁻¹ and the kon is 1.81e+06 M⁻¹ s⁻¹. Moreover, the Response value in [6] turned out to be 0.142. In [7], this molecule came in with an IC50 of 0.88 µg/mL.

B4: YC43B1, affinity-matured mutant clone of Ab1910VE9 displayed on yeast (VHH)
VHH: EVQLVESGGGLVQPGGSLRLSCAASGSTSDIVSMAWYRQAPGKERELVSAVFAEDWRYVEDSVKGRFTISRDNSKNTVYLQMNSLRAEDTAVYYCNVRLRITDWYSRERLDYWGQGTLVTVSS
notes: also called antibody number Ab1910VE24
As for B4, in assay [1], the “Binding MFI” value is 503 MFI. Moreover, the Binding force in assay [2] worked out at 114.

B5: Ab1910VE23 (expressed affinity-matured single domain antibody, clone YC43H2) (VHH)
VHH: EVQLVESGGGLVQPGGSLRLSCAASGSTSDIVSMAWYRQAPGKERELVSAVFAEDWRYVEDSVKGRFTISRDNSKNTVYLQMNSLRAEDTAVYYCNVRLRIPHQWRTERLDYWGQGTLVTVSS
In assay [5], B5 gave a Kd of 0.728 nM, a koff of 0.00104 s⁻¹ and a kon of 1.43e+06 M⁻¹ s⁻¹. Further, the Response value in assay [6] came to 0.116. The IC50 in assay [7] was found to be 1.24 µg/mL.

B6: Ab1910VE21 (expressed affinity-matured single domain antibody, clone YC41D1) (VHH)
VHH: EVQLVESGGGLVQPGGSLRLSCAASGSTSDIVSMAWYRQAPGKERELVSAVLAPGWSYVEDSVKGRFTISRDNSKNTVYLQMNSLRAEDTAVYYCNVRLRITDERRRERLDYWGQGTLVTVSS
With B6, in assay [5], the Kd is 0.413 nM, the koff came to 0.00051 s⁻¹ and the kon came out at 1.24e+06 M⁻¹ s⁻¹. The Response value in [6] amounted to 0.154. In assay [7], this molecule had an IC50 of 0.42 µg/mL.

B7: YC41D1, affinity-matured mutant clone of Ab1910VE9 displayed on yeast (VHH)
VHH: EVQLVESGGGLVQPGGSLRLSCAASGSTSDIVSMAWYRQAPGKERELVSAVLAPGWSYVEDSVKGRFTISRDNSKNTVYLQMNSLRAEDTAVYYCNVRLRITDERRRERLDYWGQGTLVTVSS
notes: also called antibody number Ab1910VE21
With B7, the “Binding MFI” value in [1] came to 337 MFI. The Binding force in assay [2] is 98.2.

B8: Ab1910VE8 (Hz20A6.2 humanized VHH fused with IgG1 Fc N297A) (Fc fusion)
VHH: EVQLVESGGGLVQPGGSLRLSCAASGSTSDIVSMAWYRQAPGKERELVSAVFAEDWRYVEDSVKGRFTISRDNSKNTVYLQMNSLRAEDTAVYYCNVRLRITDERRRERLDYWGKGTTVTVSS
notes: as for B2
In [3], B8 came in with a Kd of 10.5 nM, a koff of 0.0184 s⁻¹ and a kon of 1.75e+06 M⁻¹ s⁻¹. This molecule also yielded an IC50 in assay [4] of 4.18 µg/mL.

B9: YC43H2, affinity-matured mutant clone of Ab1910VE9 displayed on yeast (VHH)
VHH: EVQLVESGGGLVQPGGSLRLSCAASGSTSDIVSMAWYRQAPGKERELVSAVFAEDWRYVEDSVKGRFTISRDNSKNTVYLQMNSLRAEDTAVYYCNVRLRIPHQWRTERLDYWGQGTLVTVSS
notes: also called antibody number Ab1910VE23
For the molecule B9, the “Binding MFI” value in [1] worked out at 358 MFI. In addition, the Binding force in [2] came to 129.

B10: Ab1910VE24 (expressed affinity-matured single domain antibody, clone YC43B1) (VHH)
VHH: EVQLVESGGGLVQPGGSLRLSCAASGSTSDIVSMAWYRQAPGKERELVSAVFAEDWRYVEDSVKGRFTISRDNSKNTVYLQMNSLRAEDTAVYYCNVRLRITDWYSRERLDYWGQGTLVTVSS
On to B10, for which, in [5], binding was put at a Kd of 0.626 nM, the koff turned out to be 0.000857 s⁻¹ and the kon stood at 1.37e+06 M⁻¹ s⁻¹. Also, in assay [6], the Response value worked out at 0.153. The molecule further showed an IC50 in assay [7] of 0.623 µg/mL.

B11: Y20A6, anti-human VEGF165 single domain heavy chain antibody clone displayed on yeast (VHH, not shown: large carriers; small tags and cut ends)
VHH: AVQLVESGGGLVQAGGSARLSCAASGSTSDIVSMAWYRQAPGKERDLVAAVFAEDWRYVEDSVRGRFTISRDNTKNTVDLQMNNLKPEDTAIYYCNVRLRITDERRRERLDYWGQGTQVTVSS
B11 displayed an Irrelevant antigen binding signal (PE MFI) with irrelevant antigen of 21.8 MFI.

B12: Ab1910VE6 (Y20A6 VHH fused with IgG1 Fc N297A; original antibody before humanization) (Fc fusion)
VHH: AVQLVESGGGLVQAGGSARLSCAASGSTSDIVSMAWYRQAPGKERDLVAAVFAEDWRYVEDSVRGRFTISRDNTKNTVDLQMNNLKPEDTAIYYCNVRLRITDERRRERLDYWGQGTQVTVSS
notes: as for B2
In [3], B12 yielded a Kd of 6.3 nM, a koff of 0.00888 s⁻¹ and a kon of 1.41e+06 M⁻¹ s⁻¹. In assay [8], this molecule yielded a Response value of 0.442. For the same molecule, the IC50 in assay [4] was 0.516 µg/mL.
